Results from patent publication US20050260733.

T1: α-2 macroglobulin
T1 sequence (P01023 24-1474, species assumed, looked up): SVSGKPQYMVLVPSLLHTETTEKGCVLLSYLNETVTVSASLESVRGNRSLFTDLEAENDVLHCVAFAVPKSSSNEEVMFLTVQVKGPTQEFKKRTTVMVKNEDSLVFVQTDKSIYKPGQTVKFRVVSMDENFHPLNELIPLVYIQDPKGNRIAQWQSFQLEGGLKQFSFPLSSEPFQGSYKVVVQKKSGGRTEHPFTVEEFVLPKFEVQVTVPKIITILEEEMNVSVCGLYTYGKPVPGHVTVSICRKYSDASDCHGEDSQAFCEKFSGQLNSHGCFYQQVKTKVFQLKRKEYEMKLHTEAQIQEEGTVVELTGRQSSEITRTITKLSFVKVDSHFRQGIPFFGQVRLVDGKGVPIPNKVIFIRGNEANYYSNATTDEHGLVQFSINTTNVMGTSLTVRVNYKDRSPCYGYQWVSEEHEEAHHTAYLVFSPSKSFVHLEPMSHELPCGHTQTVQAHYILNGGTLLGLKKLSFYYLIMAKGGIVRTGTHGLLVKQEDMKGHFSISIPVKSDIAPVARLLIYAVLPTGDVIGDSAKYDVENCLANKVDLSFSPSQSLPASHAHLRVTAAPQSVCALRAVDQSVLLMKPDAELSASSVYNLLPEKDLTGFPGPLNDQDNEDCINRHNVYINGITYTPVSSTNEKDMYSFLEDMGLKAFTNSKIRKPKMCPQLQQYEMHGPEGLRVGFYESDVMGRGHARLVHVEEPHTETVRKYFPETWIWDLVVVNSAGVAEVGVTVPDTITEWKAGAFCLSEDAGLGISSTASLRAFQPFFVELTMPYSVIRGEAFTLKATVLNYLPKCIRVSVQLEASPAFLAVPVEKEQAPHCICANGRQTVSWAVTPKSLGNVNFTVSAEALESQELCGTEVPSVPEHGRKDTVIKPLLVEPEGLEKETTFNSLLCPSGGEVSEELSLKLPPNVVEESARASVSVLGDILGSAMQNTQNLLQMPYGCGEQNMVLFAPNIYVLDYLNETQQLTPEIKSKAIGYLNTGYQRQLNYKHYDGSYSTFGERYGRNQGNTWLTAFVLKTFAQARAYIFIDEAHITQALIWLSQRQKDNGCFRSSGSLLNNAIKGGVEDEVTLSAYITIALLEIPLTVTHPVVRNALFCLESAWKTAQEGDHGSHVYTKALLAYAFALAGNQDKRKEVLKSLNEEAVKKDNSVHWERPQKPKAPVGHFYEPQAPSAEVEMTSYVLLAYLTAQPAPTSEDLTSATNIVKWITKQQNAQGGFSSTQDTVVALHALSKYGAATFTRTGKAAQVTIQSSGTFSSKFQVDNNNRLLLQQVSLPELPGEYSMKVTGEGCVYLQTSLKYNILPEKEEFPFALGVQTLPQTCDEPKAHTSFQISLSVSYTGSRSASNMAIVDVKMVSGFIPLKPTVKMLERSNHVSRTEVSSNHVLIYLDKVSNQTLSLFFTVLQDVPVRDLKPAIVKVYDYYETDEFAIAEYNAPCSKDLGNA


Tests used:
[1] = molecular target: undigested bovine aggrecan, P13608
α-2 macroglobulin = molecular target: T1, α-2 macroglobulin

Chain of undigested bovine aggrecan, P13608 (P13608 20-2364): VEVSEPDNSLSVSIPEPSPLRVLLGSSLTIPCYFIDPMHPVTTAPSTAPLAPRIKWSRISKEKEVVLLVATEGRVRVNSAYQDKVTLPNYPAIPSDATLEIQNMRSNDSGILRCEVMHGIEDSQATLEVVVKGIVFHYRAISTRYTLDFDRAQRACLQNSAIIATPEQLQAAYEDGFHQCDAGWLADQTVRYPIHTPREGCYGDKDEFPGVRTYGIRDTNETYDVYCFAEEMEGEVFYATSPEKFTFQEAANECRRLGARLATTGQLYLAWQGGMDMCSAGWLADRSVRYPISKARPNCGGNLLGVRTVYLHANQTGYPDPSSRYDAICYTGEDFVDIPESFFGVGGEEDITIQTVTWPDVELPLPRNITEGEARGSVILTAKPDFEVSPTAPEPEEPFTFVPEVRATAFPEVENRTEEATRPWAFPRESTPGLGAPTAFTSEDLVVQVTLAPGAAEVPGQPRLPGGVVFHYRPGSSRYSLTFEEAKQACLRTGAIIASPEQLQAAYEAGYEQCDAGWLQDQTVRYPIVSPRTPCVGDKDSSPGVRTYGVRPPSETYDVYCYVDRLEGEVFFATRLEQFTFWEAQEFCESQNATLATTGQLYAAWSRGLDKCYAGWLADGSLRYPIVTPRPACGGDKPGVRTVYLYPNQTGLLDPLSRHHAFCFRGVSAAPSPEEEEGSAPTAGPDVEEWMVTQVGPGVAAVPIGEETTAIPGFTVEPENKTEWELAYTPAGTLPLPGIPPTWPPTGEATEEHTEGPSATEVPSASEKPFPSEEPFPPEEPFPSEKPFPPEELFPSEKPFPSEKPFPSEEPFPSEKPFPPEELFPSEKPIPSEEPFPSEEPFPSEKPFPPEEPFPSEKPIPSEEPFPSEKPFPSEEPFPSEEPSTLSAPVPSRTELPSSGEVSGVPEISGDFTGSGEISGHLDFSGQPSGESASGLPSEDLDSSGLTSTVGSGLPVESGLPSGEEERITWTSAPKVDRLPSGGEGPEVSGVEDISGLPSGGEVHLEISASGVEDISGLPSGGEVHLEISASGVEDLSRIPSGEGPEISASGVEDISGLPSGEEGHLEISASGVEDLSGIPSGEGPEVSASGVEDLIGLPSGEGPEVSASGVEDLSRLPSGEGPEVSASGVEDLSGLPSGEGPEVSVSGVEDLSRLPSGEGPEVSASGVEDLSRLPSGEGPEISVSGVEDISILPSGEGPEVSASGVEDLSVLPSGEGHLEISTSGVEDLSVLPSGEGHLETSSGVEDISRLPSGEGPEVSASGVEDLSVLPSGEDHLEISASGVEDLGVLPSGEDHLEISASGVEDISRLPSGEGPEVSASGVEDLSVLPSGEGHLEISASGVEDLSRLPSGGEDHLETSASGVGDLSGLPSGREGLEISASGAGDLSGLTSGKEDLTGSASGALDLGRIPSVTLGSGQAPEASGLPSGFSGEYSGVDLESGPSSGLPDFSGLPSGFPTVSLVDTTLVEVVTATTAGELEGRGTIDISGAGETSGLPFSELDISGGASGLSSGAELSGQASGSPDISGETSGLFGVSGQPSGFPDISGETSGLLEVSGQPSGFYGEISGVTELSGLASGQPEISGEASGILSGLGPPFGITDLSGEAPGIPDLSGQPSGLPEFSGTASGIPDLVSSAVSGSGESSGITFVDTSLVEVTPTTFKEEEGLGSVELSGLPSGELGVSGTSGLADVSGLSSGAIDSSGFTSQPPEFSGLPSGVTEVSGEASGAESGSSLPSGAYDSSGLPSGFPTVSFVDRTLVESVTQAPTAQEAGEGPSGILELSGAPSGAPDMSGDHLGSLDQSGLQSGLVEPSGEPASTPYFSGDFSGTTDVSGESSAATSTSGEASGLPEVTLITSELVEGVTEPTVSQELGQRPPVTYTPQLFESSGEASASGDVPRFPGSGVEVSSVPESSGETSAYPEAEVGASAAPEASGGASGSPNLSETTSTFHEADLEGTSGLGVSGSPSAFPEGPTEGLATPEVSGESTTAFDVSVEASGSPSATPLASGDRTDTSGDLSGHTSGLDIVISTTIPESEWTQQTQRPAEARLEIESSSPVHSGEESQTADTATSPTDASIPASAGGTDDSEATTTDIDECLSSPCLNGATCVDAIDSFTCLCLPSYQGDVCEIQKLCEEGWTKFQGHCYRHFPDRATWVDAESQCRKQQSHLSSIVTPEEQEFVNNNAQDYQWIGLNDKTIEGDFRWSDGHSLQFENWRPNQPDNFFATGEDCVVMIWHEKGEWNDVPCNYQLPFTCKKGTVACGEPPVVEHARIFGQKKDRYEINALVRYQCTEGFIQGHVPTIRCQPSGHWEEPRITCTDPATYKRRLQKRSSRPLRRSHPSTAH

Row | Protein | aggrecan cleavage seen by neoepitope Western blot [1] | lowest enzyme:substrate ratio at which cleavage is detected by Western blot [1] | aggrecan cleavage by AGG-C1 Western blotting [1] | α2-macroglobulin assay (α-2 macroglobulin)
1 | recombinant human ADAMTS-8 with C-terminal Strep-tag (protein) RFVSEARFVETLLVADASMAAFYGADLQNHILTLMSVAARIYKHPSIKNSINLMVVKVLIVEDEKWGPEVSDNGGLTLRNFCNWQRRFNQPSDRHPEHYDTAILLTRQNFCGQEGLCDTLGVADIGTICDPNKSCSVIEDEGLQAAHTLAHELGHVLSMPHDDSKPCTRLFGPMGKHHVMAPLFVHLNQTLPWSPCSAMYLTELLDGGHGDCLLDAPRAALPLPTGLPGRMALYQLDQQCRQIFGPDFRHCPNTSAQDVCAQLWCHTDGAEPLCHTKNGSLPWADGTPCGPGHLCSEGSCLPEEEVERPKPVADGGWAPWGPWGECSRTCGGGVQFSHRECKDPEPQNGGRYCLGRRAKYQSCHTEECPPDGKSFREQQCEKYNAYNYTDMDGNLLQWVPKYAGVSPRDRCKLFCRARGRSEFKVFEAKVIDGTLCGPETLAICVRGQCVKAGCDHVVDSPRKLDKCGVCGGKGNSCRKVSGSLTPTNYGYNDIVTIPAGATNIDVKQRSHPGVQNDGNYLALKTADGQYLLNGNLAISAIEQDILVKGTILKYSGSIATLERLQSFRPLPEPLTVQLLTVPGEVFPPKVKYTFFVPNDVDFSMQSSKERATTNIIQPLLHAQWVLGDWSECSSTCGAGWQRRTVECRDPSGQASATCNKALKPEDAKPCESQLCPLGSGSAWSHPQFEK | MAb BC-3 immunoreactive bands increased in intensity with increasing amounts of ADAMTS-8 protein relative to aggrecan substrate | cleavage of bovine articular cartilage aggrecan by ADAMTS-8 at an enzyme:substrate ratio of 1:0.5 using the BC-3 neoepitope MAb ... can be readily detected |  | 
2 | recombinant C-terminally truncated ADAMTS-8 (protein) MLPAPAAPRWPPLLLLLLLLLLPLARGAPARPAAGGQASELVVPTRLPGSAGELALHLSAFGKGFVLRLAPDDSFLAPEFKIERLGGSGRATGGERGLRGCFFSGTVNGEPESLAAVSLCRGLSGSFLLDGEEFTIQPQGAGGSLAQPHRLQRWGPAGARPLPRGPEWEVETGEGQRQERGDHQEDSEEESQEEEAEGASEPPPPLGATSRTKRFVSEARFVETLLVADASMAAFYGADLQNHILTLMSVAARIYKHPSIKNSINLMVVKVLIVEDEKWGPEVSDNGGLTLRNFCNWQRRFNQPSDRHPEHYDTAILLTRQNFCGQEGLCDTLGVADIGTICDPNKSCSVIEDEGLQAAHTLAHELGHVLSMPHDDSKPCTRLFGPMGKHHVMAPLFVHLNQTLPWSPCSAMYLTELLDGGHGDCLLDAPRAALPLPTGLPGRMALYQLDQQCRQIFGPDFRHCPNTSAQDVCAQLWCHTDGAEPLCHTKNGSLPWADGTPCGPGHLCSEGSCLPEEEVERPKPVADGGWAPWGPWGECSRTCGGGVQFSHRECKDPEPQNGGRYCLGRRAKYQSCHTEECPPDGKSFREQQCEKYNAYNYTDMDGNLLQWVPKYAGVSPRDRCKLFCRARGRSEFKVFEAKVIDGTLCGPETLAICVRGQCVKAGCDHVVDSPRKLDKCGVCGGKGNSCRKVSGSLTPTNYGYNDIVTIPAGATNIDVKQRSHPGVQNDGNYLALKTADGQYLLNGNLAISAIEQDILVKGTILKYSGSIATLERLQSFRPLPEPLTVQLLTVPGEVFPPKVKYTFFVPNDVDFSMQSSKERATTNIIQPLLHAQWVLGDWSECSSTCGAGWQRRTVECRDPSGQASATCNKALKPEDAKPCESQLCPL |  |  | it seemed to be no more active than full-length recombinant ADAMTS-8 on aggrecan substrate as judged by AGG-C1 Western blotting | the purified protein was active as judged by α2-macroglobulin assay
